# B1: GST-WDR4 (natural protein, UniProt P57081 1-412, looked up)
# chain: MAGSVGLALCGQTLVVRGGSRFLATSIASSDDDSLFIYDCSAAEKKSQENKGEDAPLDQGSGAILASTFSKSGSYFALTDDSKRLILFRTKPWQCLSVRTVARRCTALTFIASEEKVLVADKSGDVYSFSVLEPHGCGRLELGHLSMLLDVAVSPDDRFILTADRDEKIRVSWAAAPHSIESFCLGHTEFVSRISVVPTQPGLLLSSSGDGTLRLWEYRSGRQLHCCHLASLQELVDPQAPQKFAASRIAFWCQENCVALLCDGTPVVYIFQLDARRQQLVYRQQLAFQHQVWDVAFEETQGLWVLQDCQEAPLVLYRPVGDQWQSVPESTVLKKVSGVLRGNWAMLEGSAGADASFSSLYKATFDNVTSYLKKKEERLQQQLEKKQRRRSPPPGPDGHAKKMRPGEATLSC
# notes: WDR4 cDNA amplified by PCR and cloned to pGEX-4T-1; pGEX-4T-1 would place GST at the N-terminus (surmised from the vector); also called bacterially purified GST-WDR4
# Target: T1, His-PTPN23 (UniProt Q9H3S7 1-1636)
# T1 construct: PTPN23 cDNA amplified and subcloned to pVL1392 with a His-tag; also called baculovirally purified PTPN23; source: baculovirus, purified (Ni-Sepharose beads, eluted with imidazole)
# T1 sequence (Q9H3S7 whole entry): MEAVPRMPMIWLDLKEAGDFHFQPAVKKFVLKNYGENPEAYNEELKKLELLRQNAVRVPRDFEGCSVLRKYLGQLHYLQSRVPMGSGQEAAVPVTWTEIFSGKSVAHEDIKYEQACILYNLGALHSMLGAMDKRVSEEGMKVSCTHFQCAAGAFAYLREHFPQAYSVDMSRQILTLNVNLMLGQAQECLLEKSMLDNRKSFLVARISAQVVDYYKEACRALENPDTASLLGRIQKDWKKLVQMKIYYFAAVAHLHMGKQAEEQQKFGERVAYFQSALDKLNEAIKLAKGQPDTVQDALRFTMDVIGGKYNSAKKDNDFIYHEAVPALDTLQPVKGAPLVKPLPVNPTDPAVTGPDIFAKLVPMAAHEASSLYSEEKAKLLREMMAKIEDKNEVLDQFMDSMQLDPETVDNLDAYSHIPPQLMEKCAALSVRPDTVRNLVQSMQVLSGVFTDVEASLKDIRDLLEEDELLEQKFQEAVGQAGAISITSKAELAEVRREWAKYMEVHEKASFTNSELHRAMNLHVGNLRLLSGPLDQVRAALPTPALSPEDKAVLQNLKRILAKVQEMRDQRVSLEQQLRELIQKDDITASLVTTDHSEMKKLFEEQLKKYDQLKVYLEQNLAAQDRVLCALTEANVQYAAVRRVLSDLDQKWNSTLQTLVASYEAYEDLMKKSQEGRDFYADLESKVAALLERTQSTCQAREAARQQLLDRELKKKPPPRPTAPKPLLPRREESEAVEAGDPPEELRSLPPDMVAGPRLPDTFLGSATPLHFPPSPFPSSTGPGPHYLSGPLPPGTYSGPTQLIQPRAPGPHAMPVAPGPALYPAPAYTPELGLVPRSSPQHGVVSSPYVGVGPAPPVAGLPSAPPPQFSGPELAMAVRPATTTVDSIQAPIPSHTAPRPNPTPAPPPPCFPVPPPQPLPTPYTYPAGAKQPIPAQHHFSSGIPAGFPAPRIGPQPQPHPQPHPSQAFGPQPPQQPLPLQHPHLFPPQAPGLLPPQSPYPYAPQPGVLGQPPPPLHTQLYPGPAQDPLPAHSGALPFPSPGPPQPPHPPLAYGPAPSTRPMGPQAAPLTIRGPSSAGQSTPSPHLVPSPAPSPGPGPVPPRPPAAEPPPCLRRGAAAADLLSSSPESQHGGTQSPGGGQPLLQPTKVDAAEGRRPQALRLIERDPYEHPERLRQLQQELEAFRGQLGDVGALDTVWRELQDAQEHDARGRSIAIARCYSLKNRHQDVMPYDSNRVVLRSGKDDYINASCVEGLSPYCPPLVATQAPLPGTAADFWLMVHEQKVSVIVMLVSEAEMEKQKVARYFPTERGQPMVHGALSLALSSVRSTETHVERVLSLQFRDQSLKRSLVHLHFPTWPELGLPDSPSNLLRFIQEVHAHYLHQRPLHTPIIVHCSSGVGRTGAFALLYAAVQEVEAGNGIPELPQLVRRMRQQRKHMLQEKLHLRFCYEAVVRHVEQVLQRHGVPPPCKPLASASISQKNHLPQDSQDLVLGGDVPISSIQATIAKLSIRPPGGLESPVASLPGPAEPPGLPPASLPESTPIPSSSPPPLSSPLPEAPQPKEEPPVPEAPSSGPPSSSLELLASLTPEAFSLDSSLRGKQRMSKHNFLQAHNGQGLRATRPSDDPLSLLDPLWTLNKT
# Experiment: pull-down; GST-WDR4 bound on glutathione beads incubated with purified PTPN23 or PTPN23 segments; binding buffer 50 mM Tris-HCl pH 7.5, 150 mM NaCl, 1% NP-40; bound proteins by Western blot
# Settings: both partners purified
binder,measurement,value
B1,binding result,binds
